Here are results for 1 molecule from patent publication CN101443359A (GENENTECH INC, dated 2009).

One assay concerns the target T1, 重组人EGFL7蛋白 (human, UniProt Q9UHF1 24-273, limits assumed).
T1 construct: also called hEGFL7; 带polyHis标签的EGFL7
T1 sequence (looked up): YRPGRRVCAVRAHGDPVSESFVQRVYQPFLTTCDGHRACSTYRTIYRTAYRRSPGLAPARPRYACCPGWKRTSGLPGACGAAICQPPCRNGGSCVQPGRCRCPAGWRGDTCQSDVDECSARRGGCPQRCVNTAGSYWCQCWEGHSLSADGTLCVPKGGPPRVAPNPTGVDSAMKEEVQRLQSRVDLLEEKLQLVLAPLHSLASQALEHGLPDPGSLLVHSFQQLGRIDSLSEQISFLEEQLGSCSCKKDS
Kind of assay: SPR, BIAcore 3000, room temperature, polyHis-tagged EGFL7 injected, 1:1 model, mAb stock in 50mM Tris/125mM NaCl.

In a further assay the target is T2, 重组小鼠EGFL7蛋白 (mouse, UniProt Q9QXT5 22-275, limits assumed).
T2 construct: also called mEGFL7; 带polyHis标签的EGFL7
T2 sequence (looked up): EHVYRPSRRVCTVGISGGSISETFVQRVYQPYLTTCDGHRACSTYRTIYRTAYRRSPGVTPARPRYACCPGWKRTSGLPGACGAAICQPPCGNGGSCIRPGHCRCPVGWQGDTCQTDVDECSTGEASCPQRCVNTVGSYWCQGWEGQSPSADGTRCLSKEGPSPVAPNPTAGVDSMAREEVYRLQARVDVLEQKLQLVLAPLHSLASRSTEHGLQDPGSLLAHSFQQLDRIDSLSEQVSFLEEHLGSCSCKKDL
The assay is described as above.

B1: 抗EGFL7鼠单抗4F11.1.8 (antibody, V domains shown)
VH: QIQLVQSGPELKKPGETVKISCKASGHTFTTYGMSWVKQAPGKGLKWMGWINTHSGVPTYADDFKGRFAFSLETSASTAHLQINNLKNEDTATYFCARLGSSAVDYWGQGTTVTVSS
VL: DIVLTQSPASLAVSLGQRATISCKASQSVDYDGDSYMSWYQQKPGQPPKLLIYGASNLESGIPARFSGSGSGTDFTLNIHPVEEEDAATYYCQQNNEDPYTFGGGTKVEIKR
notes: Hybridoma deposit PTA-7343
B1: the values for the dissociation constant Kd with 重组人EGFL7蛋白 and with 重组小鼠EGFL7蛋白 were 473 pM and 756 pM, respectively.
